B1: Formin-binding protein 4, residues 200 to 261; numbered along this chain, Q8N3X1 (parent)
chain: SGWQYDTQCSLAGVGIEMGDWQEVWDENTGCYYYWNTQTNEVTWELPQYLATQVQGLQHYQP

± gives the uncertainty stated by the source.

In the series the parent is B1. Nature of the series: abundance fitness (aPCA) (normalised: wild type 0, dead -1); higher = more abundant; growth selection in yeast, the domain comes from the species named. The conditions noted are these: Homo sapiens.
As for SGWQYDTQCSLAGVMIEMGDWQEVWDENTGCYYYWNTQTNEVTWELPQYLATQVQGLQHYQP, the abundance fitness was -0.321 ± 0.12.

As to SGWQYDTQCSLAGVDIEMGDWQEVWDENTGCYYYWNTQTNEVTWELPQYLATQVQGLQHYQP, the abundance fitness amounted to 0.132 ± 0.1.

As to SGWQYDTQCSLAGVAIEMGDWQEVWDENTGCYYYWNTQTNEVTWELPQYLATQVQGLQHYQP, the abundance fitness turned out to be 0.273 ± 0.057.

In the case of SGWQYDTQCSLAGVFIEMGDWQEVWDENTGCYYYWNTQTNEVTWELPQYLATQVQGLQHYQP, the abundance fitness is -0.583 ± 0.14.

For the variant SGWQYDTQCSLAGVCIEMGDWQEVWDENTGCYYYWNTQTNEVTWELPQYLATQVQGLQHYQP, the abundance fitness is -0.182 ± 0.11.

For the variant SGWQYDTQCSLAGVYIEMGDWQEVWDENTGCYYYWNTQTNEVTWELPQYLATQVQGLQHYQP, the abundance fitness was -0.661 ± 0.18.

On to SGWQYDTQCSLAGVRIEMGDWQEVWDENTGCYYYWNTQTNEVTWELPQYLATQVQGLQHYQP, for which the abundance fitness was -0.071 ± 0.071.

Consider SGWQYDTQCSLAGVVIEMGDWQEVWDENTGCYYYWNTQTNEVTWELPQYLATQVQGLQHYQP, for which the abundance fitness is -0.481 ± 0.075.

Consider SGWQYDTQCSLAGVHIEMGDWQEVWDENTGCYYYWNTQTNEVTWELPQYLATQVQGLQHYQP, for which the abundance fitness was -0.536 ± 0.16.

With SGWQYDTQCSLAGVIIEMGDWQEVWDENTGCYYYWNTQTNEVTWELPQYLATQVQGLQHYQP, the abundance fitness was -0.67 ± 0.18.

As to SGWQYDTQCSLAGVKIEMGDWQEVWDENTGCYYYWNTQTNEVTWELPQYLATQVQGLQHYQP, the abundance fitness was -0.073 ± 0.11.

As for SGWQYDTQCSLAGVNIEMGDWQEVWDENTGCYYYWNTQTNEVTWELPQYLATQVQGLQHYQP, the abundance fitness is -0.21 ± 0.15.

Consider SGWQYDTQCSLAGVTIEMGDWQEVWDENTGCYYYWNTQTNEVTWELPQYLATQVQGLQHYQP, for which the abundance fitness was -0.099 ± 0.094.

As to SGWQYDTQCSLAGVLIEMGDWQEVWDENTGCYYYWNTQTNEVTWELPQYLATQVQGLQHYQP, the abundance fitness was -0.638 ± 0.085.

On to SGWQYDTQCSLAGVEIEMGDWQEVWDENTGCYYYWNTQTNEVTWELPQYLATQVQGLQHYQP, for which the abundance fitness was -0.178 ± 0.088.

As for SGWQYDTQCSLAGVQIEMGDWQEVWDENTGCYYYWNTQTNEVTWELPQYLATQVQGLQHYQP, the abundance fitness amounted to 0.1 ± 0.11.

SGWQYDTQCSLAGVPIEMGDWQEVWDENTGCYYYWNTQTNEVTWELPQYLATQVQGLQHYQP: the abundance fitness was -0.03 ± 0.088.

For the variant SGWQYDTQCSLAGVWIEMGDWQEVWDENTGCYYYWNTQTNEVTWELPQYLATQVQGLQHYQP, the abundance fitness is -0.727 ± 0.16.

As to SGWQYDTQCSLAGVSIEMGDWQEVWDENTGCYYYWNTQTNEVTWELPQYLATQVQGLQHYQP, the abundance fitness is -0.11 ± 0.087.

Consider SGWQYDTQCSLAGVGMEMGDWQEVWDENTGCYYYWNTQTNEVTWELPQYLATQVQGLQHYQP, for which the abundance fitness was 0.08 ± 0.088.

For SGWQYDTQCSLAGVGQEMGDWQEVWDENTGCYYYWNTQTNEVTWELPQYLATQVQGLQHYQP, the abundance fitness is -0.621 ± 0.12.

In the case of SGWQYDTQCSLAGVGVEMGDWQEVWDENTGCYYYWNTQTNEVTWELPQYLATQVQGLQHYQP, the abundance fitness stood at 0.027 ± 0.058.

In the case of SGWQYDTQCSLAGVGHEMGDWQEVWDENTGCYYYWNTQTNEVTWELPQYLATQVQGLQHYQP, the abundance fitness was -0.8 ± 0.41.

In the case of SGWQYDTQCSLAGVGWEMGDWQEVWDENTGCYYYWNTQTNEVTWELPQYLATQVQGLQHYQP, the abundance fitness was -0.671 ± 0.092.

SGWQYDTQCSLAGVGREMGDWQEVWDENTGCYYYWNTQTNEVTWELPQYLATQVQGLQHYQP: the abundance fitness is -0.713 ± 0.068.

Regarding SGWQYDTQCSLAGVGAEMGDWQEVWDENTGCYYYWNTQTNEVTWELPQYLATQVQGLQHYQP, the abundance fitness was -0.332 ± 0.082.

Regarding SGWQYDTQCSLAGVGGEMGDWQEVWDENTGCYYYWNTQTNEVTWELPQYLATQVQGLQHYQP, the abundance fitness is -0.763 ± 0.088.

In the case of SGWQYDTQCSLAGVGTEMGDWQEVWDENTGCYYYWNTQTNEVTWELPQYLATQVQGLQHYQP, the abundance fitness was -0.506 ± 0.11.

Turning to SGWQYDTQCSLAGVGFEMGDWQEVWDENTGCYYYWNTQTNEVTWELPQYLATQVQGLQHYQP, the abundance fitness was -0.195 ± 0.19.

With SGWQYDTQCSLAGVGSEMGDWQEVWDENTGCYYYWNTQTNEVTWELPQYLATQVQGLQHYQP, the abundance fitness was -0.574 ± 0.094.

Take SGWQYDTQCSLAGVGEEMGDWQEVWDENTGCYYYWNTQTNEVTWELPQYLATQVQGLQHYQP: the abundance fitness is -0.507 ± 0.092.

In the case of SGWQYDTQCSLAGVGCEMGDWQEVWDENTGCYYYWNTQTNEVTWELPQYLATQVQGLQHYQP, the abundance fitness is -0.373 ± 0.12.

As to SGWQYDTQCSLAGVGDEMGDWQEVWDENTGCYYYWNTQTNEVTWELPQYLATQVQGLQHYQP, the abundance fitness is -0.742 ± 0.32.

On to SGWQYDTQCSLAGVGYEMGDWQEVWDENTGCYYYWNTQTNEVTWELPQYLATQVQGLQHYQP, for which the abundance fitness was -0.334 ± 0.27.

SGWQYDTQCSLAGVGPEMGDWQEVWDENTGCYYYWNTQTNEVTWELPQYLATQVQGLQHYQP: the abundance fitness was -0.735 ± 0.13.

For the variant SGWQYDTQCSLAGVGLEMGDWQEVWDENTGCYYYWNTQTNEVTWELPQYLATQVQGLQHYQP, the abundance fitness was -0.137 ± 0.064.

Regarding SGWQYDTQCSLAGVGKEMGDWQEVWDENTGCYYYWNTQTNEVTWELPQYLATQVQGLQHYQP, the abundance fitness is -0.542 ± 0.15.

As for SGWQYDTQCSLAGVGNEMGDWQEVWDENTGCYYYWNTQTNEVTWELPQYLATQVQGLQHYQP, the abundance fitness was -0.676 ± 0.33.

As to SGWQYDTQCSLAGVGIEMTDWQEVWDENTGCYYYWNTQTNEVTWELPQYLATQVQGLQHYQP, the abundance fitness is -0.782 ± 0.14.

In the case of SGWQYDTQCSLAGVGIEMPDWQEVWDENTGCYYYWNTQTNEVTWELPQYLATQVQGLQHYQP, the abundance fitness was -0.897 ± 0.14.

For SGWQYDTQCSLAGVGIEMHDWQEVWDENTGCYYYWNTQTNEVTWELPQYLATQVQGLQHYQP, the abundance fitness is -0.642 ± 0.34.

Turning to SGWQYDTQCSLAGVGIEMEDWQEVWDENTGCYYYWNTQTNEVTWELPQYLATQVQGLQHYQP, the abundance fitness was -0.4 ± 0.09.

SGWQYDTQCSLAGVGIEMADWQEVWDENTGCYYYWNTQTNEVTWELPQYLATQVQGLQHYQP: the abundance fitness is -0.091 ± 0.068.

The record behind these values is the Human Domainome abundance scans (Beltran et al. 2025).
